Reference: US6887705B1, “Tyrosine phosphorylated cleavage furrow-associated proteins (PSTPIPs)” (Genentech, Inc., priority 1997, dated 2005)

Key:
[1] = target: T1, interaction between PTP HSCF and PSTPIP (Mus musculus, UniProt P97814); assay: Peptide inhibition of in vitro binding of PSTPIP to GST-PTP HSCF fusion; design: species or system murine; details: GST-PST-rich+CTH PTP HSCF precipitating in vitro translated PSTPIP, varying amounts of peptide
T1 construct: made in house; host or cells: GST fusion: E. coli DH5-alpha; PSTPIP: in vitro transcription/translation in rabbit reticulocyte lysate (Promega TnT)
T1 sequence (P97814 1-415): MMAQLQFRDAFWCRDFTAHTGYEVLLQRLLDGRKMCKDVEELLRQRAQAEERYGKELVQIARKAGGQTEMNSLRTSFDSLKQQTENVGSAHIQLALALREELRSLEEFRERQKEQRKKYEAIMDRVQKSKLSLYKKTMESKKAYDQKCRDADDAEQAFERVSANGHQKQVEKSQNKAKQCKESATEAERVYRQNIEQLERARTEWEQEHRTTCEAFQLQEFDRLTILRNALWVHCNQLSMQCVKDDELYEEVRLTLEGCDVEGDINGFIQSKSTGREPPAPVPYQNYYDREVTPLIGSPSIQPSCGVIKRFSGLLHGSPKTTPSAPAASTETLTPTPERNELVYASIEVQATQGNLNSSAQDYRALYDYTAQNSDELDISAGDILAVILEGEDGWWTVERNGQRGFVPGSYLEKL
Experimental: The binding was carried out according to the method of Wong and Johnson (Wong et al., J. Biol. Chem. 271(35):20981-20984 (1996)). Briefly, 1 μg of plasmid with either the PSTPIP protein or PTP HSCF under the control of the Sp6 promoter was in vitro transcribed/translated using the Promega™ TnT Rabbit Reticulocyte™ system. Samples were diluted in 50 mM HEPES, pH 7.2, 1% triton X 100, 10% glycerol, 100 mM NaCl, 5 mM EDTA and 2 μg/ml each of leupeptin, pepstatin, aprotinin, and PMSF. […] This was reacted for 1 hour at 4° C. and then the resin washed 6 times in HEPES/Triton binding buffer before SDS gel electrophoresis. The peptides were synthesized on an automated Milligen 9050 Peptide Synthesizer using standard solid phase chemistry with FMOC protected amino acids on a p-alkoxybenzyl alcohol resin. Dried peptides were re-suspended in the HEPES/Triton Binding buffer at a concentration of 10 mg/ml. Peptide inhibition was performed by adding the peptide first to the in vitro translation product and then the GST-fusion followed by the GSH-Sepharose. […]
In vitro binding analyses between various PTP HSCF and PST PIP constructs were performed as previously described (Spencer et al, (1997), supra). […] Samples were than reacted with GST fusion proteins at various concentrations, and the bound proteins were centrifuged using glutathione-sepharose beads and analyzed on SDS polyacrylamide gels. […]

[2] = tested on: PSTPIP tyrosine phosphorylation; assay: Tyrosine phosphorylation of endogenous PSTPIP in Baf3 cells; format: cell-based, murine
Experimental: Baf3 cells were lysed in 1% Triton, 50 mM HEPES. 10% glycerol and 5 mM EDTA containing 1 μg/ml aprotinin, PMSF, leupeptin and pepstatin were 1 mM Sodium Vanadate and 10 mM Iodoacetic acid. Cells were treated with 0.1 mM Pervanadate for 4 hours before lysis. Immunoprecipitations were performed in the vanadate-containing lysis buffer using 1 μg/ml anti-PSTPIP polyclonal antibody and 400 μg of lysate protein at 4° C. overnight. Western blots were performed using 1 μg/ml affinity purified anti-PSTPIP or 1:5000 dilution of commercial 4G10 anti-phosphotyrosine monoclonal (Upstate Biotech). Signal was detected by HRPO-ECL reagents (Pierce). The C221-S mutant was as previously described (Cheng et al., (1996) supra). The PTP HSCF D197-A mutant was generated using PCR. Mutagenesis primer D197A.F ([…]) (SEQ ID NO:24), corresponding to nucleotide 591, and primer D197A.R ([…]) (SEQ ID NO:25) which corresponds to the stop codon, were used in PCR to generate a fragment that could be cut with Mscl and XbaI. pRK.HA.38 WT, a plasmid which encoded the wild type enzyme under the control of the cytomegalovirus promoter (Cheng et al., (1996) supra), was digested with Clal and Mscl and the resulting 600 bp fragment was ligated with the Mscl-Xbal PCR fragment into the Clal and Xbal sites of the pRK.tkneo. […]

| Compound | blocking of the PTP HSCF-PSTPIP interaction by peptide [1] | tyrosine phosphorylation of endogenous PSTPIP [2] |
| --- | --- | --- |
| GGVLRSISVPAPPTLPMADT [PXXP-CONTROL] | completely unable to block the interaction |  |
| [O]=[V]([O-])([O-])[O-] [vanadate] |  | significantly enhanced |
